# Test results from patent US11300572B2, “Methods and systems for producing nanolipoprotein particles” (LAWRENCE LIVERMORE NATIONAL SECURITY, LLC, priority 2007, dated 2022).
# B1: bR: bacteriorhodopsin from H. salinarium, seven transmembrane protein, cell-free expressed from bOp with all-trans retinal (protein, UniProt P02945 14-262, looked up)
# Bacteriorhodopsin: QAQITGRPEWIWLALGTALMGLGTLYFLVKGMGVSDPDAKKFYAITTLVPAIAFTMYLSMLLGYGLTMVPFGGEQNPIYWARYADWLFTTPLLLLDLALLVDADQGTILALVGADGIMIGTGLVGALTKVYSYRFVWWAISTAAMLYILYVLFFGFTSKAESMRPEVASTFKVLRNVTVVLWSAYPVVWLIGSEGAGIVPLNIETLLFMVLDVSAKVGFGLILLRSRAIFGEAEAPEPSAGDGAAATSD
# modifications: all-trans retinal chromophore
# Type: physicochemical
# Protocol: Cell-free reactions were then performed. In particular, preparative reactions are carried out using the Invitrogen's Expressway Maxi kit or Roche's RTS 500 ProteoMaster Kit. Basically, lyophilized reaction components (Lysate, Reaction Mix, Amino Acid Mix, Methionine) are dissolved in Reconstitution Buffer and combined as specified by the manufacturer. For co-expression a total of 5 μg of each plasmid DNA (bOp and Δ49A1) was added to the lysate mixture with added DMPC vesicles and retinal cofactor (see below). The reactions were incubated at 30° C. or 37° C. for 4-24 h. For membrane protein survey studies co-expression of 0.2 ug Δ49A1 DNA and 1 ug of each membrane protein DNA was added to the cell-free mixture where [^35S]Met (135 mCi/mmol final) (Perkin Elmer, Waltham, Mass.) was added in place of methionine. The soluble fraction was obtained by centrifuging the reactions at 14000×g for 5 min. Autoradiograms were generated by overnight exposures to proteins separated by SDS-PAGE (data not shown). Percent solubility was determined using ImageJ software (U. S. National Institutes of Health) to quantize autoradiogram bands for the soluble fractions in the presence and absence of apolipoprotein Δ49A1.
# All were expressed in the presence of 30-50 μM all-trans-retinal and 2 mg/mL DMPC. […]
# The NLPs were also analyzed by SDS Page. […]
molecule,measurement,value
B1,solubility of bR,insoluble
